# Test: In vitro release of AZD4320 from dendrimer conjugates in PBS pH 7.4, 37 °C
# Conditions: for Cummulative Release % / Mean % Released: PBS 37 °C
# Protocol: In vitro release half-life was calculated by least squares fitting to a 1st order release model.
# AZD4320 release kinetics were determined in vitro under physiological conditions.
# Nanoparticles were suspended in phosphate buffered saline (PBS) pH7.4 or rat plasma with 5%
# HEPES in HPLC vials and sample temperature maintained to 37 °C using a water bath with
# continuous stirring of the sample provided by iChem explorer unit. Periodically, 5-10 µL of
# sample was injected onto the column (Acquity UPLC BEH shield RP18 1.7 µm, 4.6 x 30 mm,
# Waters), bracketed by DMA to re-dissolve any precipitated AZD4320. The percent release was
# calculated by comparing unconjugated AZD4320 peak area to total unconjugated + dendrimer-
# conjugated AZD4320 peak areas. The half-life was calculated by least squares fitting to a 1st
substance,measurement,setting,value
AZD4320-MIDA-PEG2100 [AZD0466],Cummulative Release %,"0.75 h, Replicate 1",2.01%
same,Cummulative Release %,"0.90 h, Replicate 2",2.72%
same,Cummulative Release %,"1.05 h, Replicate 3",2.87%
same,Cummulative Release %,"1.67 h, Replicate 1",3.95%
same,Cummulative Release %,"1.82 h, Replicate 2",4.63%
same,Cummulative Release %,"1.97 h, Replicate 3",5.12%
same,Cummulative Release %,"2.60 h, Replicate 1",6.37%
same,Cummulative Release %,"2.75 h, Replicate 2",7.07%
same,Cummulative Release %,"2.90 h, Replicate 3",7.57%
same,Cummulative Release %,"3.52 h, Replicate 1",8.48%
same,Cummulative Release %,"3.67 h, Replicate 2",9.50%
same,Cummulative Release %,"3.83 h, Replicate 3",9.95%
same,Cummulative Release %,"4.45 h, Replicate 1",10.66%
same,Cummulative Release %,"4.60 h, Replicate 2",11.87%
same,Cummulative Release %,"4.75 h, Replicate 3",12.24%
same,Cummulative Release %,"5.37 h, Replicate 1",12.82%
same,Cummulative Release %,"5.52 h, Replicate 2",13.72%
same,Cummulative Release %,"5.68 h, Replicate 3",14.33%
same,Cummulative Release %,"6.30 h, Replicate 1",15.04%
same,Cummulative Release %,"6.45 h, Replicate 2",16.29%
same,Cummulative Release %,"6.60 h, Replicate 3",15.86%
same,Cummulative Release %,"7.22 h, Replicate 1",15.94%
same,Cummulative Release %,"7.37 h, Replicate 2",17.47%
same,Cummulative Release %,"7.53 h, Replicate 3",17.99%
same,Cummulative Release %,"8.15 h, Replicate 1",18.09%
same,Cummulative Release %,"8.30 h, Replicate 2",19.34%
same,Cummulative Release %,"8.45 h, Replicate 3",19.77%
same,Cummulative Release %,"9.07 h, Replicate 1",20.00%
same,Cummulative Release %,"9.23 h, Replicate 2",21.33%
same,Cummulative Release %,"9.38 h, Replicate 3",21.63%
same,Cummulative Release %,"10.00 h, Replicate 1",22.23%
same,Cummulative Release %,"10.15 h, Replicate 2",23.21%
same,Cummulative Release %,"10.30 h, Replicate 3",23.50%
same,Cummulative Release %,"10.92 h, Replicate 1",23.70%
same,Cummulative Release %,"11.08 h, Replicate 2",25.81%
same,Cummulative Release %,"11.23 h, Replicate 3",25.99%
same,Cummulative Release %,"11.85 h, Replicate 1",25.62%
same,Cummulative Release %,"12.00 h, Replicate 2",26.79%
same,Cummulative Release %,"12.15 h, Replicate 3",27.44%
same,Cummulative Release %,"12.77 h, Replicate 1",27.74%
same,Cummulative Release %,"12.93 h, Replicate 2",29.41%
same,Cummulative Release %,"13.08 h, Replicate 3",29.66%
same,Cummulative Release %,"13.70 h, Replicate 1",29.02%
same,Cummulative Release %,"13.85 h, Replicate 2",30.77%
same,Cummulative Release %,"14.00 h, Replicate 3",31.43%
same,Cummulative Release %,"14.63 h, Replicate 1",30.82%
same,Cummulative Release %,"14.78 h, Replicate 2",32.39%
same,Cummulative Release %,"14.93 h, Replicate 3",33.56%
same,Cummulative Release %,"15.55 h, Replicate 1",32.52%
same,Cummulative Release %,"15.70 h, Replicate 2",34.45%
same,Cummulative Release %,"15.85 h, Replicate 3",35.54%
same,Cummulative Release %,"16.48 h, Replicate 1",34.39%
same,Cummulative Release %,"16.63 h, Replicate 2",35.86%
same,Cummulative Release %,"16.78 h, Replicate 3",36.74%
same,Cummulative Release %,"17.40 h, Replicate 1",35.32%
same,Cummulative Release %,"17.55 h, Replicate 2",37.92%
same,Cummulative Release %,"17.71 h, Replicate 3",39.37%
same,Cummulative Release %,"18.33 h, Replicate 1",37.81%
same,Cummulative Release %,"18.48 h, Replicate 2",39.44%
same,Cummulative Release %,"18.63 h, Replicate 3",41.92%
same,Cummulative Release %,"19.25 h, Replicate 1",40.42%
same,Cummulative Release %,"19.40 h, Replicate 2",41.10%
same,Cummulative Release %,"19.56 h, Replicate 3",42.30%
same,Cummulative Release %,"20.18 h, Replicate 1",40.20%
same,Cummulative Release %,"20.33 h, Replicate 2",43.40%
same,Cummulative Release %,"20.48 h, Replicate 3",44.87%
same,Cummulative Release %,"21.10 h, Replicate 1",42.52%
same,Cummulative Release %,"21.25 h, Replicate 2",45.67%
same,Cummulative Release %,"21.41 h, Replicate 3",46.38%
same,Cummulative Release %,"22.03 h, Replicate 1",45.50%
same,Cummulative Release %,"22.18 h, Replicate 2",47.56%
same,Cummulative Release %,"22.33 h, Replicate 3",48.29%
same,Cummulative Release %,"22.95 h, Replicate 1",46.44%
same,Cummulative Release %,"23.10 h, Replicate 2",48.78%
same,Cummulative Release %,"23.88 h, Replicate 1",47.76%
same,Cummulative Release %,"24.03 h, Replicate 2",50.99%
same,Cummulative Release %,"24.80 h, Replicate 1",50.26%
same,Cummulative Release %,"24.95 h, Replicate 2",53.17%
same,Mean % Released,mean time 0.90 h,2.53%
same,Mean % Released,mean time 1.82 h,4.57%
same,Mean % Released,mean time 2.75 h,7.00%
same,Mean % Released,mean time 3.67 h,9.31%
same,Mean % Released,mean time 4.60 h,11.59%
same,Mean % Released,mean time 5.52 h,13.62%
same,Mean % Released,mean time 6.45 h,15.73%
same,Mean % Released,mean time 7.37 h,17.14%
same,Mean % Released,mean time 8.30 h,19.07%
same,Mean % Released,mean time 9.23 h,20.98%
same,Mean % Released,mean time 10.15 h,22.98%
same,Mean % Released,mean time 11.08 h,25.17%
same,Mean % Released,mean time 12.00 h,26.61%
same,Mean % Released,mean time 12.93 h,28.93%
same,Mean % Released,mean time 13.85 h,30.40%
same,Mean % Released,mean time 14.78 h,32.26%
same,Mean % Released,mean time 15.70 h,34.17%
same,Mean % Released,mean time 16.63 h,35.66%
same,Mean % Released,mean time 17.55 h,37.54%
same,Mean % Released,mean time 18.48 h,39.72%
same,Mean % Released,mean time 19.40 h,41.27%
same,Mean % Released,mean time 20.33 h,42.83%
same,Mean % Released,mean time 21.25 h,44.86%
same,Mean % Released,mean time 22.18 h,47.12%
same,Mean % Released,mean time 23.03 h,47.61%
same,Mean % Released,mean time 23.95 h,49.38%
same,Mean % Released,mean time 24.88 h,51.72%
same,In vitro release half-life (t1/2) of AZD4320,"PBS pH 7.4, 37 °C, first order fit",25.5 h

# — PMC7835349 (Communications Biology, 2021)
